Publication PMC7346098 (Biochemistry, 2020)

Biological target: T1, KaiC_(S431E,T432E) (Synechococcus elongatus (PCC 7942), UniProt Q79PF4 1-519, S431E | T432E)
T1 sequence (looked up): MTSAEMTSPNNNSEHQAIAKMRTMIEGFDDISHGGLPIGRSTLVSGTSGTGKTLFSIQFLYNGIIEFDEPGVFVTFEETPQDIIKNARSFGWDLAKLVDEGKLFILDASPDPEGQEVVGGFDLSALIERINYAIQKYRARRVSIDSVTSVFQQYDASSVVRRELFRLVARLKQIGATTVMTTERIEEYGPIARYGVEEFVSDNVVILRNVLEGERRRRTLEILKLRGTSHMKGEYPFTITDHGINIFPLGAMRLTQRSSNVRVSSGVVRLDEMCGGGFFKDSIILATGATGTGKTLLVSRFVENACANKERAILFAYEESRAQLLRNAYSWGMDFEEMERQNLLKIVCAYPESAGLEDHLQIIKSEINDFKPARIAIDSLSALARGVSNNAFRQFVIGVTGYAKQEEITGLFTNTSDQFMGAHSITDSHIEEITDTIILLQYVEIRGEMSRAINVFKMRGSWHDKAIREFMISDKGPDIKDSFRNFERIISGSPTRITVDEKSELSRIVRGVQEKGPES
Assay: fluorescence polarisation

B1: WT-KaiB (natural protein, Synechococcus elongatus (PCC 7942), UniProt Q79PF5 1-102, looked up)
chain: MSPRKTYILKLYVAGNTPNSVRALKTLKNILEVEFQGVYALKVIDVLKNPQLAEEDKILATPTLAKVLPLPVRRIIGDLSDREKVLIGLDLLYGELQDSDDF
binding result: binds
